Test results: paper PMC10830416

Target: LINE-1 ORF2p (L1 ORF2p), wild type (Homo sapiens, UniProt O00370 1-1275)
Experiment: cryo-EM structure (3.2 A); dTTP bound as incoming nucleotide; dTTP, dATP, ddGTP 1 mM each; 10 mM MgCl2; BS3 cross-linked; Cryo-EM: 600 nm ORF2p, RNA-DNA duplex 2:1 over protein, 30 mM K-HEPES pH 7.9, 150 mM KCl, 10 mM MgCl2, 5 mM EGTA, 1 mM DTT, 37 C 30 s, then 4 mM BS3 on ice 5 mi

Sequence of LINE-1 ORF2p (L1 ORF2p), wild type (O00370 whole entry): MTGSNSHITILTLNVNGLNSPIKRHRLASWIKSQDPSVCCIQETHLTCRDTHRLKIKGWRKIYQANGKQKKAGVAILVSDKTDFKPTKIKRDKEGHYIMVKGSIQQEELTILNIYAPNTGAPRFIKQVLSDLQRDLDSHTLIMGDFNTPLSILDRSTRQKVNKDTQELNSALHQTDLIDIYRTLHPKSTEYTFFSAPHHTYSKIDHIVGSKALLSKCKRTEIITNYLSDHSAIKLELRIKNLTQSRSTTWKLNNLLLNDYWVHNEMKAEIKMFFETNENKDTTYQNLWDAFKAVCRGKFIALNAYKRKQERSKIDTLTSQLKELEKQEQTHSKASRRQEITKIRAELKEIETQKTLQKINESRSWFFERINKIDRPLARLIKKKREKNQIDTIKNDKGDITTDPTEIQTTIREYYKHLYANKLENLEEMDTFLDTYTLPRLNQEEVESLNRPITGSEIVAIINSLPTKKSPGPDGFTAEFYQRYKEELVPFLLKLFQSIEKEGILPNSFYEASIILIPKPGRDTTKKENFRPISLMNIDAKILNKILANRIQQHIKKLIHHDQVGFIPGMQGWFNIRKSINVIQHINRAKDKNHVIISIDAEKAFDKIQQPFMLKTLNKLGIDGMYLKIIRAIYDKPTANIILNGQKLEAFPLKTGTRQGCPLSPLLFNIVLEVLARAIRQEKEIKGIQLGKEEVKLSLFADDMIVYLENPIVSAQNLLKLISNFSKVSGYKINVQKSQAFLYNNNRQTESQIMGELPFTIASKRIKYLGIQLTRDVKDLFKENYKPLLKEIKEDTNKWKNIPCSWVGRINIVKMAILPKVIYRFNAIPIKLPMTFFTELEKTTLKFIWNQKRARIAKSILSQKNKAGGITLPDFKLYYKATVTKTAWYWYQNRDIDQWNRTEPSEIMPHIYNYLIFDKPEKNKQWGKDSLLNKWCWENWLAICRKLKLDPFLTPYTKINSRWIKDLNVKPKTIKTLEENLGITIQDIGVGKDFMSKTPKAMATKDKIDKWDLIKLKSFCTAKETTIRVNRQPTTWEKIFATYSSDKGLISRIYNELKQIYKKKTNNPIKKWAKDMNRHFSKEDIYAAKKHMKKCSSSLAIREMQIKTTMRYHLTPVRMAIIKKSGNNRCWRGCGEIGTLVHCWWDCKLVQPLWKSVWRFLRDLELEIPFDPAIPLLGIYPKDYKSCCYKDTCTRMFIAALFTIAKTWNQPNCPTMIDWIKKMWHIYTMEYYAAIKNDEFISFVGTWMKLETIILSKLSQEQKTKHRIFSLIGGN

B1: Synthetic template RNA (74 nt) with 8 nt DNA primer extended to 13 nt, ending in ddG (mixed)
RNA: GCAGACUGCGUAGGCGUGCAGGAACCUGCACGCCUACGCAGUCUGCAAAAAAAAAAAAAAACAAUAUCGGCGCG
DNA: CGCGCCGATATTG
modifications: 3' dideoxyguanosine on the cDNA strand
**Q.** Does B1 bind?
**A.** Result: binds
